In the data set the target is SARS-CoV-2 spike protein, Omicron BA.2 (on SmBiT-BA.2 pseudovirus) (SARS-CoV-2 Omicron BA.2) (UniProt P0DTC2).
For the sequence “ATCCAGAGTGACGCAGCATTTCATCGGGTCCAAAAGGGGCTGCTCGGGATTGCGGATATGGACACGT [67-mer aptamer]”, the IC50 – broadly, the concentration that inhibits the measured activity by half – is 1640 nM. This lies in the single-digit micromolar range.

Regarding “CGCAGCACCCAAGAACAAGGACTGCTTAGGATTGCGATAGGTTCGG [46-mer aptamer]”, the IC50 was 700 nM. Compared with the last sequence, the IC50 is about 2.3-fold lower.

Sequence “ATCCAGAGTGACGCAGCATCGAGTGGCTTGTTTGTAATGTAGGGTTCCGGTCGTGGGTTGGACACGGTGGCTTAGT [76-mer aptamer]” returned an IC50 of 3610 nM.

For the origin of these results see article PMC11940275.
